Test system: serum uric acid (sUA)
Assay: Serum uric acid (sUA) levels and sUA responders, open-label study of pegloticase with MTX (NCT03635957)
Format: in vivo, human
Experimental: The primary objective is to estimate the response rate during Month 6 (Weeks 20, 22, and 24), as measured by the sustained normalization of serum uric acid (SUA) to <6 mg/dL for at least 80% of the time during Month 6 in subjects receiving KXX with MTX.
The primary efficacy outcome endpoint is the sustained normalization of SUA to <6 mg/dL for at least 80% of the time during month 6 (weeks 20, 22, and 24) in subjects receiving KXX with MTX. This is slightly below the urate solubility threshold and this threshold has been the accepted standard for nearly all modern gout trials. Participants who achieve this endpoint were classified as “responders.” Serum uric acid (SUA) responders may also be defined as participants achieving and maintaining SUA <6 mg/dL for at least 80% of the time during Month 6 (Weeks 20, 22, and 24).
Blood samples may be collected prior to each pegloticase infusion for measurement of SUA levels using the Beckman Coulter AU System Uric Acid procedure. Participants were declared “non-responders” if there were SUA measures >6 mg/dL at 2 consecutive study visits beginning with the week 2 visit. […] If the SUA goal is not maintained before or at the 12-week mark, it was assumed that the participant had developed clinically relevant anti-pegloticase antibody and they received no further infusions. This assumption and subsequent discontinuation of pegloticase was consistent with the protocol of large phase III randomized controlled trials and the product label. A formal stopping rule was 2 occasions of SUA levels of greater than 6 mg/dL.
Clinical Chemistry—Blood samples were collected prior to each pegloticase infusion for measurement of SUA levels (primary efficacy parameter) using the Beckman Coulter AU System Uric Acid procedure. In this procedure uric acid is converted to hydrogen peroxide. Hydrogen peroxide reacts with reagent to produce a chromophore which is read bichromatically at 660/800 nm. The amount of dye formed is proportional to the uric acid concentration in the sample.
Serum samples for measurement of SUA levels were collected at the Screening Visit, the Week −4 Visit (prior to the first dose of MTX), and the Week −2 Visit during the MTX Run-in Period; within 48 hours prior to each pegloticase infusion and after the end of each pegloticase infusion prior to discharge from the site during the Pegloticase+IMM Period; at the non-infusion Week 52/End of Study/Early Termination Visits and at the Post Treatment 3 and 6 Month Follow-up Visits. Additional serum samples for SUA levels were collected at optional non-infusion (Frequent Sampling) Visits at Weeks 1 and 7. […] Subjects with SUA level >6 mg/dL at 2 consecutive visits beginning at Week 2 visit discontinued treatment, completed the End of Pegloticase Infusion Visit procedures within 2 weeks and continued the subject visits according to the protocol (without treatment).
Efficacy analyses were performed using the modified intention-to-treat (mITT) population, defined as all enrolled subjects who received ≥1 dose of pegloticase. The proportion of Month 6 responders was summarized, along with a 95% confidence interval for the proportion. The proportion of Month 3 and overall (Months 3 and 6 combined) responders was analyzed similarly.
A subject was declared a non-responder if the subject had SUA level >6 mg/dL at 2 consecutive study visits beginning with the Week 2 Visit. In addition, a subject who withdraws from study treatment for any reason after the first dose of pegloticase in the KXX+MTX Period and prior to Month 6 (for the primary endpoint) or Month 3 (for the secondary endpoint) was considered a non-responder if SUA values were not collected at the planned time points.
Patients were administered oral MTX (15 mg/week) and folate (1 mg/day) 4 weeks prior to the first pegloticase infusion (Day 1) and throughout the pegloticase treatment period. […]

[1] = Week 6 - Pre-Infusion, Month 6 sUA Responders
[2] = Week 6 - Pre-Infusion, mITT, n=13
[3] = Week 8 - Post-Infusion, Month 6 sUA Non-Responders
[4] = Week 8 - Post-Infusion, Month 6 sUA Responders
[5] = Week 8 - Post-Infusion, mITT, n=12
[6] = Week 8 - Pre-Infusion, Month 6 sUA Non-Responders
[7] = Week 8 - Pre-Infusion, Month 6 sUA Responders
[8] = Week 8 - Pre-Infusion, mITT, n=12
[9] = Week 10 - Post-Infusion, Month 6 sUA Responders
[10] = Week 10 - Post-Infusion, mITT, n=11
[11] = Week 10 - Pre-Infusion, Month 6 sUA Non-Responders
[12] = Week 10 - Pre-Infusion, Month 6 sUA Responders
[13] = Week 10 - Pre-Infusion, mITT, n=12
[14] = Week 12 - Post-Infusion, Month 6 sUA Responders

B1: pegloticase (protein)
chain: TYKKNDEVEFVRTGYGKDMIKVLHIQRDGKYHSIKEVATTVQLTLSSKKDYLHGDNSDVIPTDTIKNTVNVLAKFKGIKSIETFAVTICEHFLSSFKHVIRAQVYVEEVPWKRFEKNGVKHVHAFIYTPTGTHFCEVEQIRNGPPVIHSGIKDLKVLKTTQSGFEGFIKDQFTTLPEVKDRCFATQVYCKWRYHQGRDVDFEATWDTVRSIVLQKFAGPYDKGEYSPSVQKTLYDIQVLTLGQVPEIEDMEISLPNIHYLNIDMSKMGLINKEEVLLPLDNPYGKITGTVKRKLSSRL
modifications: monomethoxy PEG conjugated; Krystexxa Sequence
notes: covalent conjugate of uricase produced by a genetically modified strain of Escherichia coli and monomethoxypoly (ethylene glycol)
- sUA < 6 mg/dL, % [1]: (100%)
- sUA Change from Baseline, Mean [1]: -8.97 mg/dL
- sUA Change from Baseline, Median [1]: -8.80 mg/dL
- sUA Observed, Mean [1]: 0.30 mg/dL
- sUA Observed, Median [1]: 0.30 mg/dL
- sUA < 6 mg/dL, n (%) [2]: 12 (92.3%)
- sUA Change from Baseline, Mean (SD) [2]: −8.31 (3.538) mg/dL
- sUA Change from Baseline, Median [2]: -8.80 mg/dL
- sUA Observed, Mean (SD) [2]: 0.91 (2.191) mg/dL
- sUA Observed, Median [2]: 0.30 mg/dL
- sUA < 6 mg/dL, % (Week 7, Month 6 sUA Responders): (100%)
- sUA Change from Baseline, Mean (Week 7, Month 6 sUA Responders): -8.90 mg/dL
- sUA Observed, Mean (Week 7, Month 6 sUA Responders): 0.30 mg/dL
- sUA < 6 mg/dL, n (%) (Week 7, mITT, n=4): 4 (100%)
- sUA Change from Baseline, Mean (SD) (Week 7, mITT, n=4): −8.90 (4.755) mg/dL
- sUA Change from Baseline, Median (Week 7, mITT, n=4): -7.85 mg/dL
- sUA Observed, Mean (SD) (Week 7, mITT, n=4): 0.30 (0.000) mg/dL
- sUA Observed, Median (Week 7, mITT, n=4): 0.30 mg/dL
- sUA < 6 mg/dL, % [3]: (100%)
- sUA Change from Baseline, Mean [3]: -9.10 mg/dL
- sUA Observed, Mean [3]: 0.30 mg/dL
- sUA < 6 mg/dL, % [4]: (100%)
- sUA Change from Baseline, Mean [4]: -8.97 mg/dL
- sUA Observed, Mean [4]: 0.30 mg/dL
- sUA < 6 mg/dL, n (%) [5]: 12 (100%)
- sUA Change from Baseline, Mean (SD) [5]: −8.98 (2.679) mg/dL
- sUA Change from Baseline, Median [5]: -8.95 mg/dL
- sUA Observed, Mean (SD) [5]: 0.30 (0.000) mg/dL
- sUA Observed, Median [5]: 0.30 mg/dL
- sUA Change from Baseline, Mean [6]: -0.50 mg/dL
- sUA Observed, Mean [6]: 8.90 mg/dL
- sUA < 6 mg/dL, % [7]: (100%)
- sUA Change from Baseline, Mean [7]: -8.91 mg/dL
- sUA Observed, Mean [7]: 0.37 mg/dL
- sUA < 6 mg/dL, n (%) [8]: 11 (91.7%)
- sUA Change from Baseline, Mean (SD) [8]: −8.20 (3.624) mg/dL
- sUA Change from Baseline, Median [8]: -8.33 mg/dL
- sUA Observed, Mean (SD) [8]: 1.08 (2.472) mg/dL
- sUA Observed, Median [8]: 0.30 mg/dL
- sUA < 6 mg/dL, % [9]: (100%)
- sUA Change from Baseline, Mean [9]: -8.97 mg/dL
- sUA Change from Baseline, Median [9]: -8.80 mg/dL
- sUA Observed, Mean [9]: 0.30 mg/dL
- sUA Observed, Median [9]: 0.30 mg/dL
- sUA < 6 mg/dL, n (%) [10]: 11 (100%)
- sUA Change from Baseline, Mean (SD) [10]: −8.97 (2.810) mg/dL
- sUA Change from Baseline, Median [10]: -8.80 mg/dL
- sUA Observed, Mean (SD) [10]: 0.30 (0.000) mg/dL
- sUA Observed, Median [10]: 0.30 mg/dL
- sUA Change from Baseline, Mean [11]: -1.30 mg/dL
- sUA Observed, Mean [11]: 8.10 mg/dL
- sUA < 6 mg/dL, % [12]: (100%)
- sUA Change from Baseline, Mean [12]: -8.97 mg/dL
- sUA Observed, Mean [12]: 0.30 mg/dL
- sUA < 6 mg/dL, n (%) [13]: 11 (91.7%)
- sUA Change from Baseline, Mean (SD) [13]: −8.33 (3.476) mg/dL
- sUA Change from Baseline, Median [13]: -8.70 mg/dL
- sUA Observed, Mean (SD) [13]: 0.95 (2.252) mg/dL
- sUA Observed, Median [13]: 0.30 mg/dL
- sUA < 6 mg/dL, % [14]: (100%)
- sUA Change from Baseline, Mean [14]: -9.13 mg/dL
- sUA Change from Baseline, Median [14]: -9.05 mg/dL
- sUA Observed, Mean [14]: 0.30 mg/dL
- sUA Observed, Median [14]: 0.30 mg/dL
- sUA < 6 mg/dL, n (%) (Week 12 - Post-Infusion, mITT, n=10): 10 (100%)

Reference: patent publication US20220323445A1, “REDUCING IMMUNOGENICITY TO PEGLOTICASE” (Horizon Therapeutics Ireland DAC, priority 2020, published 2022)
